The results in this text go back to patent US20160176984A1 (published 2016).

Substitutions are numbered along the chain they refer to.

In assay [1] the target is T1, Fcab wt expressed on yeast (human, UniProt P0DOX5 218-449 = IgG part).
T1 construct: also called non-randomized Fc fragments (Fcab wt) expressed on yeast; not shown: Aga2 display fusion partner of the pYD1-derived vector
The assay is described as follows: FACS of yeast-displayed Fcab wt, CD64 staining.

Another assay concerns the target T2, wild type Fcab (human, UniProt P0DOX5 218-449 = IgG part).
T2 construct: also called Fcab wt; wtFcab
The experiment in a line: SPR (Biacore), Fcab captured on Protein A chip, human soluble CD64 at 5 ug/ml as analyte. (SPR reads the build-up and loss of mass on a sensor chip optically.)

The target in assay [2] is T3, Her-2 on Her-2 over-expressing human breast cancer cell lines SKBR3 and Calu-3 (human, UniProt P04626 23-1255). The assay is described as follows: cell-based or functional assay.
The target of assay [3] is T3, Her-2 on Her-2 over-expressing human …. The assay is described as follows: FACS on SKBR3 cells, anti-human Fc-PE detection. The protocol:
(§1) Antigen binding was also determined by SPR. Biacore CM5 chips were coated with different amounts of human soluble Her-2 followed by addition of increasing concentrations of Fcabs. […] Antigen binding was also assessed by FACS using the Her-2 over-expressing human breast cancer cell lines SKBR3 and Calu-3. 1×10⁵ cells were incubated with increasing concentrations of Fcabs for 60 minutes on ice. Then, unbound antibodies were removed by centrifugation and washing. Cell bound Fcabs were detected by incubation with anti-human Fc specific antibodies conjugated to phycoerythrin (Sigma) for 60 minutes on ice. After washing the cells, the intensity of fluorescence on the cell surface was measured in a FACS Calibur instrument (Beckton Dickinson).

The target of assay [4] is T4, Human soluble Her-2 (Bender Med Systems, Austria) (human, UniProt P04626 23-652, limits assumed).
T4 construct: given only as 'human soluble Her-2'; It was biotinylated (sulfo-LC-LC-biotin) for the yeast FACS selections; also called recombinant antigen Her2 (Bendermedsystems); Her2-biotin
The assay is described as follows: ELISA, human soluble Her-2 coated at 2 ug/ml, anti-Fc CH2-HRP detection. The procedure: Human soluble Her-2 (Bender Med Systems, Austria) was coated to plastic at 2 μg/ml. After washing and blocking unspecific binding sites, increasing concentrations of Fcabs were added. To detect Her-2 bound Fcabs, anti-Fc CH2 domain specific monoclonal antibodies which were conjugated to horse radish peroxidase (Serotec) were added.
(An ELISA detects its analyte on a solid surface through an enzyme-linked reagent.)

Assay [5] has as its target T4, Human soluble Her-2 (Bender Med …). The assay is described as follows: SPR (Biacore), human soluble Her-2 on CM5 chip, Fcab as analyte. The procedure:
as §1

The target is the same in assay [6]. The experiment in a line: assay not stated; told under affinity maturation and FACS selection with Her2.

A word on the EC50: it is the concentration at which the effect is half-maximal. A lower EC50 goes with an effect from little substance. For orientation: Kd means the constant that tells how readily two partners part at equilibrium. Read a low Kd as tighter binding.

B1: human soluble CD64 (receptor, UniProt P12314 16-288, looked up)
chain: QVDTTKAVITLQPPWVSVFQEETVTLHCEVLHLPGSSSTQWFLNGTATQTSTPSYRITSASVNDSGEYRCQRGLSGRSDPIQLEIHRGWLLLQVSSRVFTEGEPLALRCHAWKDKLVYNVLYYRNGKAFKFFHWNSNLTILKTNISHNGTYHCSGMGKHRYTSAGISVTVKELFPAPVLNASVTSPLLEGNLVTLSCETKLLLQRPGLQLYFSFYMGSKTLRGRNTSSEYQILTARREDSGLYWCEAATEDGNVLKRSPELELQVLGLQLPTP
notes: also called CD64 (R&D Systems)
B1: the binding result (in assay [1]; in the assay with wild type Fcab) was “binds” in each case.

B2: ABEFs0101 (designed binder)
chain: EPKSCDKTHTCPPCPAPELLGGPSVFLFPPKPKDTLMISRTPEVTCVVVDVSHEDPEVKFNWYVDGVEVHNAKTKPREEQYNSTYRVVSVLTVLHQDWLNGKEYKCKVSNKALPAPIEKTISKAKGQPREPQVYTLPPSRDEYLHGDVSLTCLVKGFYPSDIAVEWESNGQPENNYKTTPPVLDSDGSFFLYSKLTVARYSPSMWRWGHGNVFSCSVMHEALHNHYTQKSLSLSPGK
notes: The EF loop is given with 13 residues under 'AA198ff'
Take B2: the “SKBR3 cell killing (ADCC with human NK cells, 7-AAD/CFSE FACS), EC50” value in assay [2] is 1 nM. Also, the figures for the concentration for a half-maximal effect (EC50) in assay [3] and in assay [4] were 5.2 nM and 16.1 nM, respectively.

B3: H10-03-6 (designed binder)
chain: B2 chain with A198P, Y200H, P202A, S203R, G208A
notes: Soluble Fcab; The EF loop is given with 13 residues under 'AA198ff'; also called H10-03-6 clone
For B3, the “SKBR3 cell killing (ADCC with human NK cells, 7-AAD/CFSE FACS), EC50” value in assay [2] worked out at 1.1 nM. For the same molecule, the results for the EC50 in assay [3], in assay [4] and in assay [6] were 10.3 nM, 4.8 nM and 18.9 nM, respectively. Also, the affinity in assay [5], expressed as Kd, was 8.6 nM.
